Test results published in patent publication US20200079850A1 (SUTRO BIOPHARMA, published 2020).
Each block holds one binder with its values, some of them ahead of it.

Experiments:
[1] = molecular target: T1, rabbit Fc-tagged recombinant human PD1 (rhPD1-rabbit Fc) (human, UniProt Q15116 25-167, limits assumed); test: flow cytometry competition: inhibition of rhPD1-rabbit Fc binding to human PD-L2 on CHO cells; PE anti-rabbit IgG detection
T1 construct: also called recombinant human PD-1 protein
T1 sequence (Q15116 25-167 limits assumed): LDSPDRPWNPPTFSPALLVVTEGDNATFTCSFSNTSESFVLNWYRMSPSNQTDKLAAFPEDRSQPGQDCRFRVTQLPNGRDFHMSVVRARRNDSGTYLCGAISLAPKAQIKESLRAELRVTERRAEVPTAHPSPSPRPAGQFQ
Procedure: CHO-k cells stably expressing human PD-L1 or PD-L2 were used to measure the ability of anti-PD1/LAG3 bi-specific antibody constructs to block rabbit Fc-tagged recombinant human PD1 (rhPD1-rabbit Fc) protein binding. Cells were seeded at 100,000 cells/well in 100 μL of FACS buffer in 96-well polypropylene plates. The cells were centrifuged and resuspended with test antibodies (2× concentration) diluted in FACS buffer, immediately followed by equal volume of rhPD1-rabbit Fc (added at 2× concentration; 0.2 ng/mL and 0.1 ng/mL final for PD-L1 and PD-L2, respectively). Cells were incubated on ice for 1 hour and washed twice. rhPD1-rabbit Fc binding on CHO-human PD-L1 or PD-L2 cells was detected with R-Phycoerythrin AffiniPure F(ab′)₂ Fragment Goat Anti-Rabbit IgG (H+L) (1:200 dilution, Jackson ImmunoResearch) for 30 minutes. The cells were washed twice with FACS buffer, fixed in 4% paraformaldehyde in PBS for 20 mins on ice in the dark, washed twice with FACS buffer, and analyzed using the BD LSR II Flow Cytometer. Data were analyzed using FlowJo (FlowJo, LLC; Ashland, Oreg.) to determine mean fluorescence intensities. Prism 6 software was used to create one site, specific binding with Hill slope curves (Log transform) to determine IC₅₀ values.

[2] = molecular target: T2, recombinant human LAG3 protein (rhLAG3), HIS-tagged (ACRO) or biotinylated (R&D Cat #2319-C3) (human, UniProt P18627 23-450, biotinylated in part of the assays); test: flow cytometry competition: inhibition of biotinylated rhLAG3 binding to MHC class II on Daudi cells; PE-streptavidin detection
T2 sequence: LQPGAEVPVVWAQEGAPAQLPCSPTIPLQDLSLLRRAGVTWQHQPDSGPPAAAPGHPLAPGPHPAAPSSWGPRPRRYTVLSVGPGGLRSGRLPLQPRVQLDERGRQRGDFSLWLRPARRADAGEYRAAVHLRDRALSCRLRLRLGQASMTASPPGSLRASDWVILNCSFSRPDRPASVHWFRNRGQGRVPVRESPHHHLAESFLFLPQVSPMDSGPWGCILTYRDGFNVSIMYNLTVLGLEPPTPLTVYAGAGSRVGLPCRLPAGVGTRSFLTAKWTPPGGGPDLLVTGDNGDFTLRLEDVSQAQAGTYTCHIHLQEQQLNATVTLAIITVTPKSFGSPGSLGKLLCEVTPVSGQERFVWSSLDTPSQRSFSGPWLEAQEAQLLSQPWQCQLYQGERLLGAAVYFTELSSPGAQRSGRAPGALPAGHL
Procedure: Daudi cells expressing Major Histocompatibility Class II (MHCII) molecules, the natural ligand for LAG3, were used to measure the ability of anti-PD1/LAG3 bi-specific antibody constructs to block biotinylated (ThermoFisher, Cat #21329) recombinant human LAG3 protein (rhLAG3, R&D Cat #2319-C3) binding. Cells were seeded at 100,000 cells/well in 100 μL of FACS buffer in 96-well polypropylene plates. The cells were centrifuged and resuspended with test antibodies (2× concentration) diluted in FACS buffer, immediately followed by equal volume of biotinylated rhLAG3 (added at 2× concentration; 7.5 μg/mL final). Cells were incubated on ice for 1 hour and washed twice. Biotinylated rhLAG3 binding was detected with 2 μg/mL R-Phycoerythrin-conjugated Streptavidin (eBioscience) for 30 minutes. Cells were washed twice with FACS buffer, fixed in 4% paraformaldehyde in PBS for 20 mins on ice in the dark, washed twice with FACS buffer, and analyzed using the BD LSR II Flow Cytometer. Data were analyzed using FlowJo (FlowJo, LLC; Ashland, Oreg.) to determine mean fluorescence intensities. Prism 6 software was used to create one site, specific binding with Hill slope curves (Log transform) to determine IC₅₀ values. […]

IC50 [1]: 3.3 nM | IC50 [2]: 24 nM
B1: PD-1/LAG3 Bi-specific Construct B: aPD1 1353-G10 scFvFc zwB R28T/P30D/H31S V262E; aLAG3 1449-G09.2 Fab zwA V262E (bispecific antibody, human IgG1, kappa)
scFv: EVQLVQSGAEVKKPGASVKVSCKASGYTFDSYGISWVRQAPGQGLEWMGWISAYNGNTNYAQKLQGRVTMTTDTSTNTAYMELRSLRSDDTAVYYCARDVDYGTGSGYWGQGTLVTVSSGGGGSGGGGSGGGGSSYELTQPPSVSVSPGQTARITCSGDALPKQYAYWYQQKPGQAPVMVIYKDTERPSGIPERFSGSSSGTKVTLTISGVQAEDEADYYCQSADNSITYRVFGGGTKVTVLAAGSDQEPKSSDKTHTCPPCPAPELLGGPSVFLFPPKPKDTLMISRTPEVTCEVVDVSHEDPEVKFNWYVDGVEVHNAKTKPREEQYNSTYRVVSVLTVLHQDWLNGKEYKCKVSNKALPAPIEKTISKAKGQPREPQVYVLPPSREEMTKNQVSLLCLVKGFYPSDIAVEWESNGQPENNYLTWPPVLDSDGSFFLYSKLTVDKSRWQQGNVFSCSVMHEALHNHYTQKSLSLSPGK
heavy: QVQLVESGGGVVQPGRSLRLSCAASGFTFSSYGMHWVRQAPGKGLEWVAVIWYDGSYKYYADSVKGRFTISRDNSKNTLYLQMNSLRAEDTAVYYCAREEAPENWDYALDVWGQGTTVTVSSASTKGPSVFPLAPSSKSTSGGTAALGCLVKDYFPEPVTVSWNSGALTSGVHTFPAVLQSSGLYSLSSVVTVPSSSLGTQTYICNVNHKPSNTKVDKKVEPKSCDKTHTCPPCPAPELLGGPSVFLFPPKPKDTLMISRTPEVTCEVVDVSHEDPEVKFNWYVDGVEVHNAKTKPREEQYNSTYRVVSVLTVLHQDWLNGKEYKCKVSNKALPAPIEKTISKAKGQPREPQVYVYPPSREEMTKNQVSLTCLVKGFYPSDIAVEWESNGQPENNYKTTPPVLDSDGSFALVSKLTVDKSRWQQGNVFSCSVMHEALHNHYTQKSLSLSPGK
light: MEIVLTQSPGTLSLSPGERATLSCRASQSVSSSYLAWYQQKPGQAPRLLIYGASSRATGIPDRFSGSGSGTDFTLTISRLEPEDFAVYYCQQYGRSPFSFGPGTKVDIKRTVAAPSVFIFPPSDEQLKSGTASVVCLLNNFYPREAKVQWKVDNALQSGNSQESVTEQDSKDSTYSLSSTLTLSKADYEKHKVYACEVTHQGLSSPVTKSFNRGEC
notes: The N-terminal Met is not included

IC50 [1]: 1.5 nM | IC50 [2]: 24 nM
B2: PD-1/LAG3 Bi-specific Construct C: aPD1 1353-G10 Vk1-39LC scFvFc zwB V262E; aLAG3 1449-G09.2 Fab zwA V262E (bispecific antibody, human IgG1, kappa)
scFv: EVQLVQSGAEVKKPGASVKVSCKASGYRFPHYGISWVRQAPGQGLEWMGWISAYNGNTNYAQKLQGRVTMTTDTSTNTAYMELRSLRSDDTAVYYCARDVDYGTGSGYWGQGTLVTVSSGGGGSGGGGSGGGGSDIQLTQSPSSLSASVGDRVTITCSGDALPKQYAYWYQQKPGKAPKLLIYKDTERPSGVPSRFSGSSSGTKVTLTISSLQPEDFATYYCQSADNSITYRVFGGGTKVEIKAAGSDQEPKSSDKTHTCPPCPAPELLGGPSVFLFPPKPKDTLMISRTPEVTCEVVDVSHEDPEVKFNWYVDGVEVHNAKTKPREEQYNSTYRVVSVLTVLHQDWLNGKEYKCKVSNKALPAPIEKTISKAKGQPREPQVYVLPPSREEMTKNQVSLLCLVKGFYPSDIAVEWESNGQPENNYLTWPPVLDSDGSFFLYSKLTVDKSRWQQGNVFSCSVMHEALHNHYTQKSLSLSPGK
heavy: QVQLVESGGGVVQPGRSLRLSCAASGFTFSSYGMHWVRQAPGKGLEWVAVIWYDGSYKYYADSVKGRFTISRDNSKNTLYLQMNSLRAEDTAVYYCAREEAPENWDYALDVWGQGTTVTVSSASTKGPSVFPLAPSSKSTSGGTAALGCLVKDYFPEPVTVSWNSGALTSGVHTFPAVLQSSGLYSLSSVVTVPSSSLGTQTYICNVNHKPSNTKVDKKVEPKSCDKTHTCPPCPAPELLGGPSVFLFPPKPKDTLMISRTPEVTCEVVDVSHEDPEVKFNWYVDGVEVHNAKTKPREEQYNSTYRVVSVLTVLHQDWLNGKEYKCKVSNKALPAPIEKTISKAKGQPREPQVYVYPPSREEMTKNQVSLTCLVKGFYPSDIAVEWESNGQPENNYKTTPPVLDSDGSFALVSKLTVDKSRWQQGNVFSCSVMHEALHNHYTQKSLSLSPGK
light: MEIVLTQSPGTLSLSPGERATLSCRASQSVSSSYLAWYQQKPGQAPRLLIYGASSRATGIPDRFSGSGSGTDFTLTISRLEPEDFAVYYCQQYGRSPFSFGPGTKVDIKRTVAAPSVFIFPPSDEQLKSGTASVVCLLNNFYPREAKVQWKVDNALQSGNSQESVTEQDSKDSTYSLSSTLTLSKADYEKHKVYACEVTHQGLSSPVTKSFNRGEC
notes: as for B1
